T1: FcγRIIa R (human, UniProt P12318 34-217)
T1 construct: extracellular domain; also called FcgRIIa R; FcγRIIa type R
T1 sequence (looked up): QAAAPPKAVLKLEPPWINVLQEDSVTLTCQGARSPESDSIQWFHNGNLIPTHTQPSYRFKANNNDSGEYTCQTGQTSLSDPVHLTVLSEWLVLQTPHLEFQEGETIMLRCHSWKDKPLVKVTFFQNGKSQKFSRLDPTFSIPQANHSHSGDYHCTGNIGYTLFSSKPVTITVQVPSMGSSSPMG

T2: FcγRIIb (human, UniProt P31994 43-217)
T2 construct: extracellular domain; also called FcgRIIb
T2 sequence (looked up): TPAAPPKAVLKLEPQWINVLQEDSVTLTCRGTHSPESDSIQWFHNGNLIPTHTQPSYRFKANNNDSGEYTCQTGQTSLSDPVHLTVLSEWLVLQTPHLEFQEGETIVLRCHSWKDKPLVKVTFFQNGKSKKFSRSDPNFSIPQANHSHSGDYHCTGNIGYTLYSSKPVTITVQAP

T3: FcγRIIb (human, UniProt P31994 43-217)
T3 construct: extracellular domain; Soluble extracellular domain with C-terminal His tag, expressed in FreeStyle293 cells; also called FcgRIIb; 2b; not shown: C-terminal His tag
T3 sequence (looked up): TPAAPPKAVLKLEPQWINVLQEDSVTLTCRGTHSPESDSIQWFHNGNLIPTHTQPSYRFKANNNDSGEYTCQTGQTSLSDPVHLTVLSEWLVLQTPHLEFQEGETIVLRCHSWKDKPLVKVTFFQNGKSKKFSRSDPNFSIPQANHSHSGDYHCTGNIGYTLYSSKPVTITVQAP

T4: FcγRIIa H (human, UniProt P12318 34-217)
T4 construct: extracellular domain; Soluble extracellular domain with C-terminal His tag, expressed in FreeStyle293 cells; also called FcgRIIa H; 2aH; not shown: C-terminal His tag
T4 sequence (looked up): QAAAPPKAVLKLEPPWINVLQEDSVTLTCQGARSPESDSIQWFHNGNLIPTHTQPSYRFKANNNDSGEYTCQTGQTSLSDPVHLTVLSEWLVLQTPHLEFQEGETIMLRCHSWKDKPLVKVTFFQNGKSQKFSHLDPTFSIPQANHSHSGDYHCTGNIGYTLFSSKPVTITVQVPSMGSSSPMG


Tests used:
[1] = molecular target: T1, FcγRIIa R; experiment: SPR (Biacore), captured antibody, FcγR analyte; binding relative to GpH7-A5/GpH7-B3/GpL16-k0 = 100
[2] = molecular target: T2, FcγRIIb; experiment: as above
[3] = molecular target: T1, FcγRIIa R; experiment: He/Con_2aR divided by He/Con_2b (FcγRIIa R over FcγRIIb); SPR (Biacore)
[4] = molecular target: T3, FcγRIIb; experiment: SPR (Biacore), antibody captured, FcγR as analyte; relative to HeCon Ab
Method: (§1) The heterodimerized antibodies He Abs in which one of the H chains was introduced with an alteration were assayed for their binding activities to each activating FcγR and inhibitory FcγR according to the method described in Example 4. […] The activating FcγRs in FIGS. 26, 27, 28, and 29 are FcγRIa, FcγRIIa (R), FcγRIIa (H), and FcγRIIIa, respectively.
(§2) Analysis of interaction between objective antibody and the FcγR was carried out using Biacore T100 (GE Healthcare). HBS-EP+ (GE Healthcare) was used as the running buffer, and the measurement temperature was set to 25° C. Chips produced by immobilizing the antigen peptide by the amine coupling method to a Series S Sencor Chip CM5 (GE Healthcare), or alternatively, chips produced by allowing preliminarily biotinylated antigen peptides to interact with and immobilize onto a Series S Sensor Chip SA (certified) (GE Healthcare) were used. Antibodies of interest were captured onto an antigen peptide-immobilized chip, and allowed to interact to each FcγR diluted with running buffer. To regenerate and repeatedly use the chip, the antibodies captured on the chip were washed off by reacting 10 mM glycine-HCl, pH 1.5.

[5] = molecular target: T4, FcγRIIa H; experiment: as above
Method: as §1, §2

Row | Binder | He/Con_2aR (IIaR binding) [1] [control=100] | He/Con_2b (IIb binding) [2] [control=100] | IIaR/IIb (He_2aR/2b) [3] [ratio] | He/Con_2b [4] | He/Con_2aH [5]
1 | GpH7-A5/GpH7-B3 variant P329_01G/GpL16-k0 (antibody, human IgG1, kappa, He Ab; IgG1; mutation in one H chain only) heavy 1: not shown heavy 2: not shown light: DIVMTQSPLSLPVTPGEPASISCQASESLVHSNRNTYLHWYLQKPGQSPQLLIYKVSNRFSGVPDRFSGSGSGTDFTLKISRVEAEDVGVYYCSQNTHVPPTFGQGTKVEIERTVAAPSVFIFPPSDEQLKSGTASVVCLLNNFYPREAKVQWKVDNALQSGNSQESVTEQDSKDSTYSLSSTLTLSKADYEKHKVYACEVTHQGLSSPVTKSFNRGEC | 55 | 41.7 | 1.32 | – | –
2 | GpH7-A5/GpH7-B3 variant A330_09D/GpL16-k0 (antibody, human IgG1, kappa, He Ab; IgG1; mutation in one H chain only) heavy 1: not shown heavy 2: not shown light: DIVMTQSPLSLPVTPGEPASISCQASESLVHSNRNTYLHWYLQKPGQSPQLLIYKVSNRFSGVPDRFSGSGSGTDFTLKISRVEAEDVGVYYCSQNTHVPPTFGQGTKVEIERTVAAPSVFIFPPSDEQLKSGTASVVCLLNNFYPREAKVQWKVDNALQSGNSQESVTEQDSKDSTYSLSSTLTLSKADYEKHKVYACEVTHQGLSSPVTKSFNRGEC | 70.9 | 55.6 | 1.27 | – | –
3 | GpH7-A5/GpH7-B3 variant A330_07I/GpL16-k0 (antibody, human IgG1, kappa, He Ab; IgG1; mutation in one H chain only) heavy 1: not shown heavy 2: not shown light: DIVMTQSPLSLPVTPGEPASISCQASESLVHSNRNTYLHWYLQKPGQSPQLLIYKVSNRFSGVPDRFSGSGSGTDFTLKISRVEAEDVGVYYCSQNTHVPPTFGQGTKVEIERTVAAPSVFIFPPSDEQLKSGTASVVCLLNNFYPREAKVQWKVDNALQSGNSQESVTEQDSKDSTYSLSSTLTLSKADYEKHKVYACEVTHQGLSSPVTKSFNRGEC | 85.6 | 67.1 | 1.27 | – | –
4 | GpH7-A5/GpH7-B3 variant A330_10E/GpL16-k0 (antibody, human IgG1, kappa, He Ab; IgG1; mutation in one H chain only) heavy 1: not shown heavy 2: not shown light: DIVMTQSPLSLPVTPGEPASISCQASESLVHSNRNTYLHWYLQKPGQSPQLLIYKVSNRFSGVPDRFSGSGSGTDFTLKISRVEAEDVGVYYCSQNTHVPPTFGQGTKVEIERTVAAPSVFIFPPSDEQLKSGTASVVCLLNNFYPREAKVQWKVDNALQSGNSQESVTEQDSKDSTYSLSSTLTLSKADYEKHKVYACEVTHQGLSSPVTKSFNRGEC | 86.6 | 70.1 | 1.23 | – | –
5 | GpH7-A5/GpH7-B3 variant A330_03V/GpL16-k0 (antibody, human IgG1, kappa, He Ab; IgG1; mutation in one H chain only) heavy 1: not shown heavy 2: not shown light: DIVMTQSPLSLPVTPGEPASISCQASESLVHSNRNTYLHWYLQKPGQSPQLLIYKVSNRFSGVPDRFSGSGSGTDFTLKISRVEAEDVGVYYCSQNTHVPPTFGQGTKVEIERTVAAPSVFIFPPSDEQLKSGTASVVCLLNNFYPREAKVQWKVDNALQSGNSQESVTEQDSKDSTYSLSSTLTLSKADYEKHKVYACEVTHQGLSSPVTKSFNRGEC | 74.9 | 52.4 | 1.43 | – | –

The next lines start with the values.

Row | He/Con_2aR (IIaR binding) [1] [control=100] | He/Con_2b (IIb binding) [2] [control=100] | IIaR/IIb (He_2aR/2b) [3] [ratio] | He/Con_2b [4] | He/Con_2aH [5] | Binder
6 | – | – | – | 101 % of GpH7-A5/GpH7-B3/GpL16-k0 (=100) | 98.6 % of GpH7-A5/GpH7-B3/GpL16-k0 (=100) | GpH7-A5/GpH7-B3 variant S239_06M/GpL16-k0 (antibody, human IgG1, kappa, Heterodimerized anti-glypican-3 IgG1; alteration in the GpH7-B3 chain only; also called He Ab) heavy 1: not shown heavy 2: not shown light: DIVMTQSPLSLPVTPGEPASISCQASESLVHSNRNTYLHWYLQKPGQSPQLLIYKVSNRFSGVPDRFSGSGSGTDFTLKISRVEAEDVGVYYCSQNTHVPPTFGQGTKVEIERTVAAPSVFIFPPSDEQLKSGTASVVCLLNNFYPREAKVQWKVDNALQSGNSQESVTEQDSKDSTYSLSSTLTLSKADYEKHKVYACEVTHQGLSSPVTKSFNRGEC
7 | – | – | – | 192 % of GpH7-A5/GpH7-B3/GpL16-k0 (=100) | 50.8 % of GpH7-A5/GpH7-B3/GpL16-k0 (=100) | GpH7-A5/GpH7-B3 variant S267_03V/GpL16-k0 (antibody, human IgG1, kappa, Heterodimerized anti-glypican-3 IgG1; alteration in the GpH7-B3 chain only; also called He Ab) heavy 1: not shown heavy 2: not shown light: DIVMTQSPLSLPVTPGEPASISCQASESLVHSNRNTYLHWYLQKPGQSPQLLIYKVSNRFSGVPDRFSGSGSGTDFTLKISRVEAEDVGVYYCSQNTHVPPTFGQGTKVEIERTVAAPSVFIFPPSDEQLKSGTASVVCLLNNFYPREAKVQWKVDNALQSGNSQESVTEQDSKDSTYSLSSTLTLSKADYEKHKVYACEVTHQGLSSPVTKSFNRGEC

From patent US20180155451A1 (published 2018)
